# Measurements as given in patent US20160122429A1.
# How the values were obtained:
# Assay in all cases: cell-based or functional assay
# [1] = biological target: human TNFα (soluble) (human) (UniProt P01375)
# [2] = biological target: human IL-23 (human) (UniProt Q9NPF7)
# [3] = biological target: human non-cleavable membrane bound TNFα on CHO cells (human) (UniProt P01375)
# Chain of human non-cleavable membrane bound TNFα on CHO cells (human) (P01375 whole entry): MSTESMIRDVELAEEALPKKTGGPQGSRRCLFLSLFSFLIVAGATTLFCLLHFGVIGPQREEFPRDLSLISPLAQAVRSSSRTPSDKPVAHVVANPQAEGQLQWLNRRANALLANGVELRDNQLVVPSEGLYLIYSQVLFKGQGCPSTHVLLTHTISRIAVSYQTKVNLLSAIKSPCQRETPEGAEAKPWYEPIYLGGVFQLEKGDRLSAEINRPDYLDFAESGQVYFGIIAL
# Chain of human TNFα (soluble) (human) (P01375 77-233 limits assumed): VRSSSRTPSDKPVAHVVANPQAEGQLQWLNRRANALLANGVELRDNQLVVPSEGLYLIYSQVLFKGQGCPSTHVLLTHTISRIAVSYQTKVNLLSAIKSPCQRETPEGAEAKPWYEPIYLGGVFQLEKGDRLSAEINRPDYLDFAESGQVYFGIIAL
# Chain of human IL-23 (human) (Q9NPF7 20-189, chain 1 of 2): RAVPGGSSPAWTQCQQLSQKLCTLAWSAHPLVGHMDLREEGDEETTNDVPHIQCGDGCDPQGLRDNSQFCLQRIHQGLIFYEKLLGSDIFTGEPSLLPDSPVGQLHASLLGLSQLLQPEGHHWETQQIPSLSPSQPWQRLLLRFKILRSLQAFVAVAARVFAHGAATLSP
# Chain of human IL-23 (human) (P29460 23-328, chain 2 of 2, further chain): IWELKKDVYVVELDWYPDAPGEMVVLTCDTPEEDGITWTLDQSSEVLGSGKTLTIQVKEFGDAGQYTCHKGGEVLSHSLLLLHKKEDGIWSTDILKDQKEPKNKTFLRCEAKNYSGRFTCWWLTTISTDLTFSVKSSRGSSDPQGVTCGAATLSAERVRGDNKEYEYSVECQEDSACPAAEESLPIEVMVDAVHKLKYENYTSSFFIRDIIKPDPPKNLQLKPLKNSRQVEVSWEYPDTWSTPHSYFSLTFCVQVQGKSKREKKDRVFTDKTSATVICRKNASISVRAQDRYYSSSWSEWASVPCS
CXCL1 Level (pg/mL) in plasma of mice challenged with human TNFα [1],mIL22 Level (pg/mL) in plasma of mice challenged with human IL-23 [2],Substance,"inhibition of killing of L929 cells by human non-cleavable membrane bound TNFα CHO cells (IC50, MTT assay) [3]"
2420 pg/mL,132 pg/mL,human IgG1 isotype control antibody,
633 pg/mL,,Adalimumab with IgG1 isotype (parental TNFα antibody),0.581 nM
